Among the data in article PMC12561925 are reduction of MHV68 ORF59-GFP infection of the murine endothelial cell line SVEC4-10 after pre-incubation of the virus with 100 nM homodimerized mEphA4-Fc, EC50 and inhibition of MHV68 ORF59-GFP infection of human fibroblasts (HFF) and endothelial cells (TIME) after pre-incubation of the virus with 100 nM homodimerized mEphB3-Fc values, retold here.

The target of test [1] is MHV68 gL-gH fusion protein (gL-Linker-gH-Linker-His6) (murine gammaherpesvirus 68 (MHV68)).
For test [2] the target is unchanged. The test can be described thus: ELISA; MHV68 gL-gH fusion protein coated at 2.5 μg/ml in PBS on Maxisorp plates; soluble dimeric Eph-Fc proteins 2 h at room temperature in 1% BSA in PBS; detected with HRP-conjugated ProteinG; OD 450 nm; four-parameter dose-response fit. In general terms: In an ELISA, binding on a coated surface is turned into a signal by an enzyme label.

The molecule “recombinant soluble murine EphA4 Fc fusion protein (from UniProt Q03137-1 20-547)” showed a reduction of MHV68 ORF59-GFP infection of the murine endothelial cell line SVEC4-10 after pre-incubation of the virus with 100 nM homodimerized mEphA4-Fc in test [1] of 25%. In test [2], the half-maximal effective concentration (EC50) (usually the concentration needed to bring the measured effect to its halfway point) was determined as 3.6 nM.

B1: recombinant soluble murine EphB3 Fc fusion protein (Fc fusion)
chain: LEETLMDTKWVTSELAWTSHPESGWEEVSGYDEAMNPIRTYQVCNVRESSQNNWLRTGFIWRREVQRVYVELKFTVRDCNSIPNIPGSCKETFNLFYYEADSDVASASSPFWMENPYVKVDTIAPDESFSRLDAGRVNTKVRSFGPLSKAGFYLAFQDQGACMSLISVRAFYKKCASTTAGFALFPETLTGAEPTSLVIAPGTCIANAVEVSVPLKLYCNGDGEWMVPVGACTCATGHEPAAKESQCRACPPGSYKAKQGEGPCLPCPPNSRTTSPAASICTCHNNFYRADSDSADSACTTVPSPPRGVISNVNETSLILEWSEPRDLGGRDDLLYNVICKKCRGSSGAGGPATCSRCDDNVEFVPRQLGLTERRVHISHLLAHTRYTFEVQAVNGVSGKSPLPPRYAAVNITTNQAAPSEVPTLHLHSSSGSSLTLSWAPPERPNGVILDYEMKYFEKSKGIASTVTSQKNSVQLDGLQPDARYVVQVRARTVAGYGQYSHPAEFETTSERGSGAQQLQEQLPL
B1 came in with an inhibition of MHV68 ORF59-GFP infection of human fibroblasts (HFF) and endothelial cells (TIME) after pre-incubation of the virus with 100 nM homodimerized mEphB3-Fc in test [1] of 30%. In test [2], this molecule displayed an EC50 of 2.3 nM.
